Reference: publication PMC6602975

Legend:
Assay in all cases: EMSA
[1] = system: Orc1 BAH Lid swap (Saccharomyces cerevisiae); conditions: 10 mM Tris pH 7.5, 50 mM NaCl, 2.5% glycerol, 1 mM DTT, room temperature 30 min, 25 or 50 nM nucleosome, native PAGE 0.2x TBE
[2] = system: Orc1 BAH Q205D (Saccharomyces cerevisiae); conditions: apparent Kd; 10 mM Tris pH 7.5, 50 mM NaCl, 2.5% glycerol, 1 mM DTT, room temperature 30 min; 25 or 50 nM nucleosome; native PAGE 0.2x TBE
[3] = system: Orc1 BAH R202E (Saccharomyces cerevisiae); conditions: 10 mM Tris pH 7.5, 50 mM NaCl, 2.5% glycerol, 1 mM DTT, room temperature 30 min; 25 or 50 nM nucleosome; native PAGE 0.2x TBE
[4] = system: Sir3 BAH D205Q (Saccharomyces cerevisiae); conditions: apparent Kd, 10 mM Tris pH 7.5, 50 mM NaCl, 2.5% glycerol, 1 mM DTT, room temperature 30 min, 25 or 50 nM nucleosome, native PAGE 0.2x TBE
[5] = system: Orc1 BAH A2P (Saccharomyces cerevisiae); conditions: 10 mM Tris pH 7.5, 50 mM NaCl, 2.5% glycerol, 1 mM DTT, room temperature 30 min; 25 or 50 nM nucleosome; native PAGE 0.2x TBE
[6] = system: Sir3 BAH Lid D205Q (Saccharomyces cerevisiae); conditions: apparent Kd, 10 mM Tris pH 7.5, 50 mM NaCl, 2.5% glycerol, 1 mM DTT, room temperature 30 min, 25 or 50 nM nucleosome, native PAGE 0.2x TBE
[7] = system: Sir3 BAH D205N (Saccharomyces cerevisiae); conditions: apparent Kd, 10 mM Tris pH 7.5, 50 mM NaCl, 2.5% glycerol, 1 mM DTT, room temperature 30 min, 25 or 50 nM nucleosome, native PAGE 0.2x TBE
[8] = system: Orc1 BAH L79I (Saccharomyces cerevisiae); conditions: 10 mM Tris pH 7.5, 50 mM NaCl, 2.5% glycerol, 1 mM DTT, room temperature 30 min; 25 or 50 nM nucleosome; native PAGE 0.2x TBE
[9] = system: Orc1 BAH E95K (Saccharomyces cerevisiae); conditions: apparent Kd; 10 mM Tris pH 7.5, 50 mM NaCl, 2.5% glycerol, 1 mM DTT, room temperature 30 min; 25 or 50 nM nucleosome; native PAGE 0.2x TBE
[10] = system: T1, Orc1 BAH WT (Saccharomyces cerevisiae); conditions: apparent Kd, 10 mM Tris pH 7.5, 50 mM NaCl, 2.5% glycerol, 1 mM DTT, room temperature 30 min, 25 or 50 nM nucleosome, native PAGE 0.2x TBE
T1 sequence: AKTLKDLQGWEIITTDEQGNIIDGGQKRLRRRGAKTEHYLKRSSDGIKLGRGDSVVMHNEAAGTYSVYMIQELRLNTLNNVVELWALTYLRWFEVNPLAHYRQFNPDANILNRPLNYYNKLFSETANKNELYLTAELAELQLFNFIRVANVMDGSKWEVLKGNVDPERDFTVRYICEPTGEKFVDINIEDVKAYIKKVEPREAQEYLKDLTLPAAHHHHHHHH

[11] = histone H4 K16ac (genetically encoded), DNA unmodified

Substance: H4K16Q nucleosome (147 bp 601)
- Kd ([1]; histone H4 K16Q (acetyl mimic), DNA unmodified): 1400 nM

Substance: WT nucleosome (147 bp 601, unmodified)
- Kd [2]: 5100 nM
- binding signal (fold decrease in affinity vs Orc1 WT) [3]: 4.9
- Kd [1]: 700 nM
- Kd ([1]; apparent Kd, comparison set with H4K16ac): 600 nM
- Kd [4]: 300 nM
- Kd [5]: 1900 nM
- Kd [6]: 1000 nM
- Kd [7]: 220 nM
- Kd [8]: 400 nM
- Kd [9]: 4400 nM
- Kd [10]: 1300 nM
- Kd ([10]; reference set for mutants): 1100 nM

Substance: H4K16ac nucleosome (147 bp 601)
- Kd ([1]; apparent Kd, histone H4 K16ac (genetically encoded), DNA unmodified): 3700 nM
- Kd [4, 11]: 1200 nM
- Kd [6, 11]: 1700 nM
- Kd [7, 11]: 810 nM
- Kd [10, 11]: 1500 nM
